Numbering of substitutions follows the chain as printed.
Key:
[1] = target: T1, rabbit α-crystallin A (CRYAA), native protein in rabbit intraocular fluid (rabbit, UniProt P02493 1-173, limits assumed); experiment: lateral flow sandwich strip, MAB1601-AuNP conjugate with MAB1301 test line; swab of rabbit eye, Arm 3: 3 mm full-thickness laceration, AC/limbus, no confounder
T1 construct: Analyte of the lateral flow assay in rabbit samples; also called Crystallin-αA; αA-Crystallin
T1 sequence (looked up): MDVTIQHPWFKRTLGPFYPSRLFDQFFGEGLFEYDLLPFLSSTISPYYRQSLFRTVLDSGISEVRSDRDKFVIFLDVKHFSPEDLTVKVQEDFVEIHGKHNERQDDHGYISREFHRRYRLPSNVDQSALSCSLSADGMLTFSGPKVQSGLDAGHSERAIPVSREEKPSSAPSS
Method: (§1) The expected results were that either one, or two, distinct red lines would form on the readout area of the test strip. The bottom half of the readout area on the nitrocellulose strip was expected to always show a red line (control), while appearance of the second line confirmed a positive result. The results were documented and whole test strip was imaged after removing the top of its plastic casing. The test strips were labelled and shipped on cold packs. For the second sample, 10-30 μL (as much as possible up to 30 μL) of the remaining ocular film was drawn by pipette and deposited in a microcentrifuge tube labeled with identities corresponding to the test strips. To this liquid sample, an equal volume of RNAlater solution was added and the sample was stored at −80° C. until shipment to the client on dry ice. Following sedation, rabbits were euthanized by intravenous barbiturate overdose. Euthasol® was delivered via the marginal ear vein at a concentration of 390 mg/ml, and a dose of 87 mg/kg. Following confirmation of euthanasia, whole corneas with sclera rims were collected and immediately placed in PBS. The medium was then exchanged for freshly made 4% PFA and tissue was fixed at room temperature for 23 hours. The tissue was then embedded in paraffin and shipped for further analysis. […]

[2] = target: T1, rabbit α-crystallin A (CRYAA), native …; experiment: lateral flow sandwich strip, MAB1601-AuNP conjugate with MAB1301 test line; swab of rabbit eye, Arm 9: 1 mm full-thickness puncture, peripheral cornea, no confounder
Method: as §1

B1: MAB1601 (Conjugate Ab; target recognition element) (antibody, mouse IgG1, kappa, V domains shown)
VH: EVKLQESGPSLVKPSQTLSLTCSVTGDSITSGYWNWIRKFPGNKLEYMGYISYSGSTYFNPSLKSRISITRDTSKNQYYLQLNSVTTEDTATYYCSTGFAYWGQGTLVTVSA
VL: DIVMSQSPSSLAVSVGEKVIMRCNSSQSLLYSGNRENYLAWYQQKPGQSPNLLIYWASRRASGVPDRFAGGGSGTDFTLTISSVKAEDLAVYYCQHYYNYPLTFGAGTRLELKR
notes: Custom anti-CRYAA monoclonal antibody made in mice against the modified C-terminal CRYAA immunogen; In the assay its amines were coupled to carboxyl gold nanoparticles by EDC/sNHS chemistry; also called conjugate antibody; upstream target recognition element
Does B1 bind [1]?
Result: binds

B2: MAB1301 (Test Line Ab; test element) (antibody, mouse IgG1, kappa, V domains shown)
VH: EVKLQESGPSLVRPGASVKMSCKASGYTFTSYNMHWVKQTPRQGLEWIGAIYPGNGDTSYNQKFKGKATLTVDKSSSTAYMQLSSLTSEDSAVYFCARVVYYSNSYWYFDVWGTGTTVTVSA
VL: B1 VL with G71S
notes: Custom anti-CRYAA monoclonal antibody made in mice; It was immobilised on the nitrocellulose test line; also called MAB1301 T-line; test-line antibody
Does B2 bind [2]?
Result: binds

Source: patent publication US20250085298A1 (TRITON SYSTEMS, published 2025)
